Results reported in US7648964B2, “Use of lacritin in promoting ocular cell survival” (University of Virginia Patent Foundation, priority 2004, dated 2010).

B1: C-25: deletion of the 25 carboxy terminal amino acids of mature lacritin (SEQ ID NO:10) (protein)
chain: EDASSDSTGADPAQEAGTSKPNEEISGPAEPASPPETTTTAQETSAAAVQGTAKVTSSRQELNPLKSIVEKSILLTEQALAKAGKGMHGGVPGG
modifications: homo sapiens
B2: C-5: deletion of the 5 carboxy terminal amino acids of mature lacritin (SEQ ID NO:10) (protein, listed as Homo sapiens)
chain: EDASSDSTGADPAQEAGTSKPNEEISGPAEPASPPETTTTAQETSAAAVQGTAKVTSSRQELNPLKSIVEKSILLTEQALAKAGKGMHGGVPGGKQFIENGSEFAQKLLKKFSL

Assays:
[1] = tested on: PKCα; assay: PKCα translocation in HSG cells (immunofluorescence, fractionation); type: cell-based, human; settings: 15 min after treatment
Excerpt: In order to dissect the molecular pathways leading to the cell survival by lacritin, protein kinases and transcriptional factors were studied by Western blotting and immunofluorescence microscopy.
Images were acquired at 2-3 s intervals using LaserSharp2000 software (Bio-Rad) and store on disc for later analysis.

[2] = tested on: NFATC1; assay: NFATC1 translocation in HSG cells (immunofluorescence); type: cell-based, human; settings: HSG and corneal epithelial cells
Excerpt: In order to dissect the molecular pathways leading to the cell survival by lacritin, protein kinases and transcriptional factors were studied by Western blotting and immunofluorescence microscopy. […] On the other hand, there were increased activities of transcriptional factors such as nuclear factor of activated T-cells (NFAT) and NF-kappaB. In FIG. 4, translocation of PKC alpha and NFAT was detected by immunofluorescence coupled with confocal microscopic imaging. In resting HSG cells (left three images), PKC alpha distributes mainly in cytosol and membrane. Similarly, NFATc1 was also found to localize largely in cytosol. Cellular co-location of PKC alpha and NFATc1 is apparent upon merging the two immunofluorescent images, as the merged cy3 and FITC labels produce distinctive yellow color.
Images were acquired at 2-3 s intervals using LaserSharp2000 software (Bio-Rad) and store on disc for later analysis. For translocation assays, HSG cells […] phorbol 12-myristate 13-acetate, […], then washed with phosphate-buffered saline, formaldehyde-fixed, blocked with phosphate-buffered saline containing 1% bovine serum albumin and 10% goat serum, incubated with anti-PKCα (C-20) or anti-NFATC1 (mab 7A6) (both from Santa Cruz Biotechnology Inc.; Santa Cruz, Calif.) followed by secondary Cy3-, FITC- or Alexa488-labeled antibodies and confocal microscopic visualization (Bio-Rad Radiance2100).

[3] = tested on: human salivary ductal (HSG) cells; assay: 3H-thymidine uptake mitogenesis assay; type: cell-based; settings: 10 nM; compared to intact lacritin
Protocol: (§1) For phosphotyrosine blotting and mitogenesis assays, cells in serum-containing media were seeded overnight in 24-well plates at a density of 0.5×10^5 cells/mm^2 corresponding to 20-30% confluency after cell attachment, incubated in serum-free media without supplements for 24 h (phosphotyrosine) or washed with serum-free media without supplements three times (mitogenesis) and incubated with lacritin (1-1000 nM), or positive controls EGF (1.6 nM) and 10% fetal bovine serum, or negative controls bovine serum albumin or no additive in serum-free media without supplements for the indicated times (phosphotyrosine) or 30 h (mitogenesis). For phosphotyrosine assays, cells were extracted in 1% NP40 containing sodium vanadate (2 mg/ml), DTT (5 mg/ml), protease inhibitors, 50 mM HEPES, 100 mM NaCl, and 2 mM EDTA; then separated by 10% SDS PAGE, transferred and blotted. The following antibodies (Cell Signaling Technology, Beverly Mass.) were tested: antiphosphotyrosine antibody (P-Tyr-100), anti-phospho-PKC αβII, anti-PKCα, anti-phospho-PKCδ, anti-phospho-PKC (pan), anti-p44/42 MAPK, anti-phospho-Raf, anti-phospho-SAPK/JNK, anti-phospho-p38 Map kinase, anti-phospho-Raf, anti-phospho-Akt, anti-phospho-CaMKII, anti-phospho-MARCKS, or anti-tubulin (loading control). After washing, bound antibodies were detected with peroxidase-labeled secondary antibody and ECL. With the exception of at least nine proteins in the P-Tyr-100 blot (FIG. 1), none of the effectors tested above appeared to be phospho-activated during lacritin signaling (not shown). For mitogenesis (Hussaini et al., '00), [^3H]-thymidine (2 mCi/ml) was added for the next 6 h. Incorporation was stopped with ice-cold phosphate buffered saline and followed by addition of cold and then room temperature trichloracetic acid (10%) for 10 min each, washing of cells with phosphate buffered saline, solubilization with 1 N sodium hydroxide, neutralization with 1 N hydrochloric acid, addition of scintillation fluid and then quantitation in a scintillation counter. To deplete PKCα in HSG cells, a pool of four PKCα-specific siRNAs (100 nM) were transfected via LipofectAMINE 2000 in Opti-MEMI Reduced Serum Medium (Invitrogen, Grand Island N.Y.) without serum and antibiotics according to manufacturer's instructions. Each of the four siRNAs was also individually transfected. In negative controls, cells were transfected with a pool of four lamin-specific siRNAs (Upstate LLC, Charlottesville Va.; Dharmacon Inc, Lafayette Colo.). Seventy-two hours post-transfection, mitogenesis was assessed by co-addition of 10 […] lacritin and [^3H]-thymidine (2 mCi/ml) (Amersham, Piscataway N.J.) for 24 hrs. PKCα depletion was confirmed by Western blotting.

[4] = tested on: PKCα; assay: Phospho-PKCα blot of HSG cell lysates; type: cell-based, human
Protocol: as §1
We imaged PKCα in cells 15 min after treatment (FIG. 8). Nonmitogenic construct/fragment C-25 (10 nM) had no effect, leaving PKCa diffusely distributed throughout the cytoplasm. […] The phosphorylation state of PKCα influences its translocation site. Hyperphosphorylated PKCα becomes associated with the plasma membrane whereas hypophosphorylated or dephosphorylated PKCα is known to translocate to the perinuclear Golgi region. To determine if the latter is true and if so over what time course, we treated cells with lacritin, N-24 and C-25, and then blotted cell lysates for phospho-PKC ? (FIG. 8B). 10 nM lacritin promotes PKC ? dephosphorylation within 1 min of addition. This form is sustained for at least 15 min, but by 30 min has returned to baseline phosphorylation. Dephosphorylation triggered by increasing molar levels of lacritin or N-24 mirrored the proliferation response with optimal dephosphorylation at 10 nM. Non-mitogenic C-25 had no effect, whereas positive control 4β-phorbol 12-myristate 13-acetate-promoted hyperphosphorylation.

[5] = tested on: human corneal epithelial (HCE) cell line; assay: TNF-α-induced cell death in HCE cells (MTT cell viability); type: cell-based; settings: 18 or 30 hours; FIG. 10
Protocol: (§2) Lacritin-induced proliferation and calcium signaling was studied in the human corneal epithelial (HCE) cell line. HCE cells were grown at 37° C. in DMEM F/12 supplemented with 10% FBS and 50 μg/ml gentamicin. Each experiment was done in a dose- and time-dependent manner using TNF-α (5-20 ng/ml) and lacritin (1-10 nM). Cell viability was measured spectrophotometrically at an absorbance of 570 nm using the MTT assay. Caspase-8 activity was detected fluorometrically by measuring cleavage of the fluorogenic substrate IETD-pNA at an excitation wavelength of 405 nm. Lacritin-induced cell proliferation was studied by H3-thymidine incorporation and via fluorescence-based detection of PKC, PLC and cAMP. Calcium signaling was detected by confocal microscopy of Fluo-4 loaded cells.

[6] = tested on: caspase-3; assay: Caspase-3 activity in human corneal epithelial cells treated with TNF; type: cell-based; settings: FIG. 11
Protocol: FIG. 11 graphically illustrates the ability of lacritin and fragments of lacritin to inhibit the ability of tumor necrosis factor (TNF) to regulate caspase-3 activity in human corneal epithelial cells. Go6976 is an inhibitor of protein kinase C. The ordinate represents relative fluorescence units. White bars indicate 3 hours and diagonally-hatched bars indicate 6 hours.
as §2

[7] = tested on: caspase-8; assay: Caspase-8 activity in human corneal epithelial cells treated with TNF-α; type: cell-based
Protocol: FIG. 12 graphically illustrates the ability of lacritin polypeptides to block TNFα induced caspase-8 activity in human corneal epithelial cells. The ordinate represents relative fluorescence units. White bars indicate 1 hour and diagonally-hatched bars indicate 6 hours.
as §2

[8] = tested on: caspase-9; assay: Caspase-9 activity in human corneal epithelial cells treated with TNF-α; type: cell-based; settings: lacritin polypeptides 10 nM
Protocol: FIG. 13 graphically illustrates the ability of lacritin polypeptides (10 nM) to block TNFα induced caspase-9 activity in human corneal epithelial cells. The ordinate represents relative fluorescence units. White bars indicate 6 hours and diagonally-hatched bars indicate 9 hours.
Caspase-9 activity was measured in cells treated with various combinations of TNF-α, fragments of lacritin, and the PKC inhibitor Go6976. […] The PKC-α inhibitor Go6976 and C-25 fail to block this increase of the downstream initiator caspase-9.

[9] = tested on: MUC16; assay: MUC16 blot of human corneal epithelial cells; type: cell-based; settings: 10 nM
Excerpt: MUC16 is an important mucin on the ocular surface. Mucin contributes to the tear film, is important for wetting the ocular surface, and is reduced in Sjogren's syndrome patients. […] Cells were blotted for MUC16.

Molecule | PKCα translocation [1] | NFATC1 translocation [2] | mitogenic activity of deletion constructs [3] | effect on PKCα phosphorylation [4] | protection from TNF-induced cell death (viability) [5] | protection from cell death by TNF (caspase-3 activity) [6] | effect on TNF-α-induced caspase-8 activity [7] | effect on TNF-α-induced caspase-9 activity [8] | MUC16 secretion [9]
B1 | had no effect | had no effect | inactive | had no effect | no effect on viability loss | do not protect | fail to block | fail to block | inactive
B2 | – | – | active | – | protect | – | blocked | blocked | –
